# Results: doi:10.1101/2021.06.01.446672 (bioRxiv, 2021)
# B1: PYP-binding protein (PBP) from Rhodobacter capsulatus (natural protein, UniProt D5AR21 1-142, looked up)
# chain: MDIVGQLMTDNGRYTFRSDTLNLRVTGDFPEWVMAAAAEMVGIVARREVDSKIDELQALVEFGEASEIEIDSVKYDAKERFEIIPQCVVTMGRTDYRWVAPEGRAKHCATFDGNPVTRVHDMSMTRNDSFLDNENGVDTSGH
# B2: Photoactive yellow protein from Rhodobacter capsulatus (Rc-PYP) (natural protein, UniProt O69138 1-124, looked up)
# chain: MEIIPFGTNDIDNILAREPARAESLPFGAVLLDRMGRIAKYNKAEGLIAGRDPSTVIGRDFFNEIAPCAKGKRFHGEFLKFNRTGQANVMLDYKFNYKGAEVAVKIHLKSQPDGQFCWLFVKRA
# modifications: chromophore (protonated in pUV, deprotonated in pBL; isomerised on photoexcitation)
# Tests used:
# SEC = biological target: the molecule itself; assay: SEC
# [1] = biological target: B1; assay: transient absorption
# [2] = biological target: B1; assay: transient grating
kon [1] [M⁻¹ s⁻¹],kon [2] [M⁻¹ s⁻¹],Binder,stoichiometry N (SEC)
,,B1,2
1.2e+06,1.1e+06,B2,
